Experimental data reported in article PMC12612255.

Biological target: CNOT1 (UniProt A5YKK6)
Assay: co-IP with FLAG-tagged YTHDF2
Conditions: reference: wild type; sites S39

YTHDF2 (from UniProt Q9Y5A9) S39A
binding against the reference: weaker
